This is an account of results in paper PMC5737734 (Journal of molecular biology, 2011).

The target in experiment [1] is DnaK, wild type, with a C-terminal hexahistidine tag (E. coli, UniProt P0A6Y8 1-638). As to the kind of experiment: SPR. In general terms: Surface plasmon resonance follows binding to a sensor surface in real time, without labels.
Another experiment concerns the target DnaK V389A (E. coli, UniProt P0A6Y8 1-638, V389A). As to the kind of experiment: SPR.

B1: DnaJ with the biotin carboxyl carrier protein (BCCP) fused at the C-terminus (natural protein, E. coli, UniProt P08622 1-376, looked up)
chain: MAKQDYYEILGVSKTAEEREIRKAYKRLAMKYHPDRNQGDKEAEAKFKEIKEAYEVLTDSQKRAAYDQYGHAAFEQGGMGGGGFGGGADFSDIFGDVFGDIFGGGRGRQRAARGADLRYNMELTLEEAVRGVTKEIRIPTLEECDVCHGSGAKPGTQPQTCPTCHGSGQVQMRQGFFAVQQTCPHCQGRGTLIKDPCNKCHGHGRVERSKTLSVKIPAGVDTGDRIRLAGEGEAGEHGAPAGDLYVQVQVKQHPIFEREGNNLYCEVPINFAMAALGGEIEVPTLDGRVKLKVPGETQTGKLFRMRGKGVKSVRGGAQGDLLCRVVVETPVGLNERQKQLLQELQESFGGPTGEHNSPRSKSFFDGVKKFFDDLTR
Take B1: the binding result (in experiment [1]; with DnaK V389A) was “binds” throughout.
